This is an account of results in article PMC12594925 (Nature Communications, 2025).

One data set concerns the target MOR (Rattus norvegicus, UniProt P33535). The data set can be described thus: Colocalization of expressed TM peptides with WT-MOR. The conditions noted are these: both expressed at 0.5–1.0 fluorescent spots/µm2.
Another data set addresses DOR-MOR (DM) heterodimer (Rattus norvegicus, UniProt P33533+P33535). It is filed as binding. Conditions: for Effect on DM heterodimerization: DOR and MOR at 0.5-1.0 spots/µm2.
Another data set has as its target DOR (Rattus norvegicus, UniProt P33533). The data set can be described thus: Colocalization of expressed TM peptides with WT-DOR. Conditions: all molecules expressed at 0.5–1.0 fluorescent spots/µm2. It is filed as binding.
The target of the next data set is DOR-KOR (DK) heterodimer (Rattus norvegicus, UniProt P33533+P34975). As to the kind of experiment: DK colocalization index, two-color single-molecule TIRF imaging. The class given is binding.
Another data set deals with DOR-MOR (Rattus norvegicus, UniProt P33535). As to the kind of experiment: cAMPinG1 cAMP inhibition assay, cells expressing DOR-MOR. The class given is cell-based. Conditions: 7 µM forskolin then 50 nM DAMGO; MOR and DOR at 5-10 fluorescent spots/µm2.
The target in another data set is DOR in D-cells (Rattus norvegicus, UniProt P33533).
The target of a further data set is MOR and DOR in MD-cells (Rattus norvegicus, UniProt P33535). The data set can be described thus: Ca2+ mobilization via Gqi5. The class given is cell-based. Conditions: increase greater with DAMGO than morphine. (In general: Calcium flux is commonly read through the fluorescence of an indicator in the cells.)
A further data set concerns the target KOR in K-cells (Rattus norvegicus, UniProt P34975). As to the kind of experiment: Ca2+ mobilization via Gqi5. It is filed as cell-based.
The target in another data set is MOR-MOR (MM) homodimer (Rattus norvegicus, UniProt P33535). The conditions noted are these: cited from earlier work.
In a further data set the target is MOR in M-cells (Rattus norvegicus, UniProt P33535). The data set can be described thus: Ca2+ mobilization via Gqi5. The conditions noted are these: [FMax-Fb]/Fb of Fluo-4. It is filed as cell-based.
MOR in M-cells, sequence (P33535 whole entry): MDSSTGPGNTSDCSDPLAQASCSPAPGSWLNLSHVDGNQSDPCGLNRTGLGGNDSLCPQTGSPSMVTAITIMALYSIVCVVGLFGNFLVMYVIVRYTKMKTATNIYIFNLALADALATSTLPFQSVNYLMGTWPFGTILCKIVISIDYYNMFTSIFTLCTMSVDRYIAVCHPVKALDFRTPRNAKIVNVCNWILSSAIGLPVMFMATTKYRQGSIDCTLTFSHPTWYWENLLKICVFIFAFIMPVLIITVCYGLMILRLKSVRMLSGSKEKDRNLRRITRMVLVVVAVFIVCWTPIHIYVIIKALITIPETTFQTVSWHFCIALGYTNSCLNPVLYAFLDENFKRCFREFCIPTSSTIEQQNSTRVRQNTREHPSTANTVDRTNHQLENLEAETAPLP

DOR-MOR (DM) heterodimer, sequence (P33533 whole entry): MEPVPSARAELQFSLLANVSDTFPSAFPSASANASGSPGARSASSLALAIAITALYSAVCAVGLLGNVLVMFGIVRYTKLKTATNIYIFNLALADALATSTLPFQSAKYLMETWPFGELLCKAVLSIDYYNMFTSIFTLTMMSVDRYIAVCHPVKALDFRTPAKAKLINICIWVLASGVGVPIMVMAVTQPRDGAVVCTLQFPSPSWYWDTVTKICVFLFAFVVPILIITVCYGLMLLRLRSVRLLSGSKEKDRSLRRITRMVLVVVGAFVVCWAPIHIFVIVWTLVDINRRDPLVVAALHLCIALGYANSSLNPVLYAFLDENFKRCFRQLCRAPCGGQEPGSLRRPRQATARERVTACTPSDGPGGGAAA
DOR-MOR (DM) heterodimer, sequence (P33535 whole entry): as the sequence (P33535 whole entry) above
DOR, sequence (P33533 whole entry): as the sequence (P33533 whole entry) above
KOR in K-cells, sequence (P34975 whole entry): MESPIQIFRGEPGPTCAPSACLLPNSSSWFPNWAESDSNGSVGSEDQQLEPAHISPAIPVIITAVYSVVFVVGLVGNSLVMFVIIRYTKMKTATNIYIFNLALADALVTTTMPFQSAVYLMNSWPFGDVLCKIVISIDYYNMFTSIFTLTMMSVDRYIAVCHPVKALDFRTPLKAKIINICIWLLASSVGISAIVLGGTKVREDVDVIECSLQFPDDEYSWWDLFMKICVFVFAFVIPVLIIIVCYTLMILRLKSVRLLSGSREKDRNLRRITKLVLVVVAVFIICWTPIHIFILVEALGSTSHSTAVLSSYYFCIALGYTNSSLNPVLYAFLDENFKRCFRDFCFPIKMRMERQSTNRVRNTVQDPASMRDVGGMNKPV
DOR in D-cells, sequence (P33533 whole entry): as the sequence (P33533 whole entry) above
DOR-KOR (DK) heterodimer, sequence (P33533 whole entry): as above
DOR-KOR (DK) heterodimer, sequence (P34975 whole entry): as the sequence (P34975 whole entry) above
MOR and DOR in MD-cells, sequence (P33535 whole entry): as the sequence (P33535 whole entry) above
MOR, sequence (P33535 whole entry): as above
DOR-MOR, sequence (P33535 whole entry): as above
MOR-MOR (MM) homodimer, sequence (P33535 whole entry): as above

Regarding “TM1^DOR: DOR TM1 peptide expressed in the PM (ITALYSAVCAVGLLGNVLVMFGIVRYTKM; UniProt P41143 52-80, looked up, fragment)”, in the data set with MOR, the “Colocalization with WT-MOR” value is on record as “moderately colocalized with MOR”.

As for “Nterm-TM1^MOR: TM1^MOR construct also containing amino acids 53-70 before the TM1 domain (GGRDSLCPPTGSPSMITAITIMALYSIVCVVGLFGNFLVMYVIVRYT; UniProt P35372 53-99, looked up, fragment)”, the “Effect on DM heterodimerization” value with DOR-MOR (DM) heterodimer is on record as “suppressed DM heterodimerization in an expression level-dependent manner”. In addition, the “Colocalization with WT-DOR” value with DOR is “colocalized with DOR, like the full-length MOR”.

Regarding “EL3-domain peptide of MOR: peptide with the MOR EL3 sequence (IIKALVTIPETTFQTV; UniProt P35372 303-318, looked up, fragment)”, the “Blocking of DK heterodimerization (DK colocalization index)” value with DOR-KOR (DK) heterodimer was “but not that of MOR, block DK heterodimerization”. Moreover, the “Blocking of DM heterodimers” value in the data set with DOR-MOR (DM) heterodimer (soluble EL3-domain peptides (Supplementary Fig. 2b)) is “failed to block DM heterodimers”.

For “TM1^MOR: membrane-integral peptide, MOR TM1 (amino acids 71-99), expressed in the PM (ITIMALYSIVCVVGLFGNFLVMYVIVRYT; UniProt P35372 71-99, looked up, fragment)”, in the data set with DOR-MOR (DM) heterodimer, the “Effect on DM heterodimerization” value is “suppressed DM heterodimerization in an expression level-dependent manner”. Also, the “Colocalization with WT-DOR” value in the data set with DOR is “colocalized with DOR, like the full-length MOR”.

Turning to `C[C@@H](NC(=O)[C@@H](N)Cc1ccc(O)cc1)C(=O)NCC(=O)N(C)[C@@H](Cc1ccccc1)C(=O)NCCO` [DAMGO], the “DAMGO-induced cAMP concentration decrease via Gi” value at DOR-MOR is “greater when DOR was co-expressed”. Moreover, the “Ca2+ response to M-agonist” value at DOR in D-cells and on KOR in K-cells was “No response was evident” in each case. Besides, on MOR and DOR in MD-cells, the “Ca2+ response to M-agonist compared to M-cells” value is recorded as “enhanced Ca²⁺ responses”. The “Effect on MM homodimerization and MM dimer lifetime” value on MOR-MOR (MM) homodimer is “enhanced MM homodimerization and slightly elongated the MM dimer lifetime”. Besides, the “Ca2+ signal induced by M-agonist” value on MOR in M-cells is reported as “induced comparable Ca²⁺ signals”.
